The record followed here is article PMC10937380 (Nature, 2024).

In assay [1] the target is T1, E3mUU(ΔUFIM) with UFBP1(R265A) (UniProt O94874 1-179; Q96HY6 204-314, R265A).
T1 construct: UFL1; limits as stated for the crystallised E3mUU(ΔUFIM) construct; UFBP1 204-C; limits as for m14; source: recombinant, purified (HisTrap, HiLoad 26/600 Superdex 75 pg)
Briefly: SEC; analytical SEC, Superdex 200 Increase 3.2/300, 25 mM HEPES pH 7.5, 200 mM NaCl, 0.5 mM TCEP; components mixed and kept on ice before loading; peak fractions on Coomassie gels. As to conditions: both partners purified.

A further assay has as its target T2, E3mUU(ΔUFIM) (UniProt O94874 1-179; Q96HY6 204-314).
T2 construct: UFL1; limits as stated for the crystallised E3mUU(ΔUFIM) construct; for the crystal 6×His-TEV-UFL1(1–179) was co-expressed with a UFC1-UFBP1 204-C fusion and the His tag was not cleaved; source: recombinant, purified (HisTrap, HiLoad 26/600 Superdex 75 pg)
The description is as above. Conditions: both partners purified.

Residue numbers refer to the chain shown, from its start. Names may count otherwise.

B1: UFC1 (enzyme)
chain: MADEATRRVVSEIPVLKTNAGPRDRELWVQRLKEEYQSLIRYVENNKNADNDWFRLESNKEGTRWFGKCWYIHDLLKYEFDIEFDIPITYPTTAPEIAVPELDGKTAKMYRGGKICLTDHFKPLWARNVPKFGLAHLMALGLGPWLAVEIPDLIQKGVIQHKEKCNQ
notes: free UFC1 in SEC and ITC; also called E2
Turning to B1, the binding result in assay [1] is recorded as “binds”.

B2: UFC1(D50A) (enzyme)
chain: B1 chain with D50A
As to B2, the binding result with E3mUU(ΔUFIM) is recorded as “binds”.
